Laboratory results: patent publication US20190185565A1 (DEUTSCHES ZENTRUM FUR NEURODEGENERATIVE ERKRANKUNG EV, published 2019)
Substitutions are numbered along the chain they refer to.

T1: human wild-type TREM2 (membrane bound, isoform 1) stably overexpressed on HEK293 Flp-In cells (human)
T1 construct: also called wt TREM2; human full-length TREM2
T1 chain: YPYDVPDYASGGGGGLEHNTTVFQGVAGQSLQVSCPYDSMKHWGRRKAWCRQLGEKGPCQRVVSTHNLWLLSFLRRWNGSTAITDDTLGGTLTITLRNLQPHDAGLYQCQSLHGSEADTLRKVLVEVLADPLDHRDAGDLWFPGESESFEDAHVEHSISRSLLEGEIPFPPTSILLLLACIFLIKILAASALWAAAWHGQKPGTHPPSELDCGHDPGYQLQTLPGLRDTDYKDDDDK

B1: antibody clone 8A11 (antibody, V domains shown)
VH: EVKLLESGGGLVQPGGSMRLSCAASGFTFTDFYMNWIRQPAGKAPEWLGLIRNKTKGYTTEYNTSVKGRFTISRDNTQNMLYLQMNSLRPEDTATYYCARIGVNNGGSLDYWGQGVMVTVSS
VL: DILIIQSPASLTVSAGARVTMSCKSSQSLLYSENNQDYLAWYQQKPGQFPKLLIYGASNRHTGVPDRFTGSGSGTDFTLTISSVQAEDLADYYCEQTYSYPYTFGAGTKLELK
notes: Rat monoclonal IgG from a hybridoma
B2: antibody clone 7A12 (antibody, V domains shown)
VH: B1 VH with T55A, K56N, E61Q, T64P, S87T, P90G, V103I
VL: B1 VL with I5N, A17E, R18K, N34K, F49S, I54M, N59Y
notes: as for B1
B3: antibody clone 21A3 (antibody, V domains shown)
VH: B1 VH with T55A, K56N, E61Q, T64P, S87T, P90G, V103I
VL: B1 VL with I5N, A17E, R18K, N34K, F49S, I54M, N59Y
notes: as for B1
B4: antibody clone 1G6 (antibody, V domains shown)
VH: B1 VH with M18L, A23V, T55A, K56N, Y58F, T64P, N79H, S87T, P90A, V103I
VL: B1 VL with I5N, A15T, A17E, R18K, N35K, S82N, S83I
notes: as for B1
B5: antibody clone 14D8 (antibody, V domains shown)
VH: B1 VH with T55A, K56N, E61V, T64P, S87T, P90G, V103I
VL: B1 VL with I5N, A15T, A17E, R18K, K24R, N34K, N59Y
notes: as for B1
B6: antibody clone 15C5 (antibody, V domains shown)
VH: B1 VH with T55A, K56Y, T64P, N79D, S87T, P90A, V103I, N105Y
VL: B1 VL with I5N, A17E, R18K, M21V, N34S, N59Y, D91H
notes: as for B1
B7: antibody clone 10C3 (antibody, V domains shown)
VH: B1 VH with K43E, A44T, T64P, V103T
VL: B1 VL
notes: as for B1
B8: antibody clone 18F9 (antibody, V domains shown)
VH: EVKLLESGGGLVQPGGSMRLSCVVSGFTFTDFYMNWIRQAAGKAPEWLGLIRNKVNGYRTEYNPSVKGRFTISRDNIQNMLYLQMNTLRAEDTATYYCARIGINNGGSLDYWGQGVMVTVSS
VL: B1 VL with I5N, A17E, R18K
notes: as for B1
B9: antibody clone 14D3 (antibody, V domains shown)
VH: B1 VH with S7F, K43R, T64R
VL: B1 VL

Molecular target: T1, human wild-type TREM2 (membrane bound, …)
Test: immunofluorescence on live HEK293 Flp-In cells expressing human full-length TREM2 against empty-vector cells; hybridoma supernatant diluted 1:2
Method: TREM2-reactive supernatants were subsequently screened for their ability to detect TREM2 on the cell surface of HEK293 Flp-In cells stably overexpressing human wild-type TREM2 (Kleinberger et al. 2014). HEK293 Flp-In cells either expressing human full-length TREM2 or empty vector (=control) were cultured in 96-well tissue culture plates, washed twice with PBS, blocked with 2% bovine serum albumin (BSA) in PBS and incubated with the respective TREM2-reactive supernatants (diluted 1:2 in blocking buffer) for 60 minutes on ice. Cells were subsequently washed three times with PBS, fixed with 4% paraformaldehyde for 20 min on room temperature and washed three times with PBS. Binding of TREM2-reactive supernatants was visualized using isotype-specific mouse-anti rat secondary antibodies followed by incubation with a goat anti-mouse tertiary antibody coupled to Alexa-488 (Life Technologies). 4′, 6-diamidino-2-phenylindol (Dapi, Life Technologies) was used as a nuclear counterstain. Images were acquired automatically using a Cytation multi-detection reader (Biotek).

binding result	Binder
binds	B1
binds	B2
binds	B3
binds	B4
binds	B5
binds	B6
binds	B7
binds	B8

Molecular target: T1, human wild-type TREM2 (membrane bound, …)
Test: cell-based or functional assay

increase of mature TREM2 in the membrane fraction (quantified immunoblot, normalized to immature TREM2) [fold]	Binder
≤ 5	B9
